Tests used:
[1] = target: T1, Recombinant soluble E protein (0.8E-His) from DENV-3 (DENV-3, UniProt P27915 281-673)
T1 construct: also called DENV-3 E protein; DV3

[2] = target: T2, Recombinant soluble E protein (0.8E-His) from DENV-1 (DENV-1, UniProt P27909 281-675)
T2 construct: also called DENV-1 E protein; DV1

[3] = target: T3, Recombinant soluble E protein (0.8E-His) from DENV-4 (DENV-4, UniProt P09866 280-674); assay: SPR, Biacore T200
T3 construct: also called DENV-4 E protein; DV4

[4] = target: T4, Recombinant soluble E protein (0.8E-His) from DENV-2 (DENV-2, UniProt P14340 281-675); assay: SPR, Biacore T200
T4 construct: also called DENV-2 E protein; DV2

Binder | Kd [1] | Kd [2] | binding result [3] | binding result [4]
DG_3CH1047-SG1106/3CL-SK1 (antibody) heavy: QVQLVQSGPDVEKPGASVKVSCKASGYTFTSYYMHWVRQAPGQGLEWMGVINPRGGSRRSAQKFQGRITMTRDTSTSTVYMELSSLRSEDTAVYYCARGGEALFYDSYTTPFDGGSWWFDPWGQGSLVTVSSASTKGPSVFPLAPSSKSTSGGTAALGCLVKDYFPEPVTVSWNSGALTSGVHTFPAVLQSSGLYSLSSVVTVPSSSLGTQTYICNVNHKPSNTKVDKRVEPKSCDKTHTCPPCPAPEAAGGPSVFLFPPKPKDTLMISRTPEVTCVVVDVSHEDPEVKFNWYVDGVEVHNAKTKPREEQYNSTYRVVSVLTVLHQDWLNGKEYKCKVSNAALPAPISKTISKAKGQPREPQVYTLPPSREEMTKNQVSLTCLVKGFYPSDIAVEWESNGQPENNYKTTPPVLDSDGSFFLYSKLTVDKSRWQQGNVFSCSVLHEALHAHYTRKELSLSP light: not shown | 4.71 pM | 2.12 nM |  | 
DG_3CH953-SG182/3CL633-SK1 (antibody, V domains shown) VH: QVQLVQSGPDVEKPGASVKVSCKASGYTFTSNYIHWVRQAPGQGLEWMGVINPRGGSRRSAQKFQGRITMTRDTSTSTVYMELSSLRSEDTAVYYCARGGRALFYDSYTTPFDGGSWWFDPWGQGSLVTVSS VL: DIQLTQSPSSLSASVGDRVTITCQASQDIRKYLNWYQQKPGKAPKLLIYDASNLKTGVPSRFSGSGSGTDFTLTISSLQPEDVATYYCQQFDDLPITFGQGTRLQIKR | 4.96 pM | 1.65 nM | binds | binds
DG_3CH953-SG1095/3CL119-SK1 (antibody) heavy: QVQLVQSGPDVEKPGASVKVSCKASGYTFTSNYIHWVRQAPGQGLEWMGVINPRGGSRRSAQKFQGRITMTRDTSTSTVYMELSSLRSEDTAVYYCARGGRALFYDSYTTPFDGGSWWFDPWGQGSLVTVSSASTKGPSVFPLAPSSKSTSGGTAALGCLVKDYFPEPVTVSWNSGALTSGVHTFPAVLQSSGLYSLSSVVTVPSSSLGTQTYICNVNHKPSNTKVDKRVEPKSCDKTHTCPPCPAPEAAGGPSVFLFPPKPKDTLMISRTPEVTCVVVDVSHEDPEVKFNWYVDGVEVHNAKTKPREEQYNSTYRVVSVLTVLHQDWLNGKEYKCKVSNAALPAPISKTISKAKGQPREPQVYTLPPSREEMTKNQVSLTCLVKGFYPSDIAVEWESNGQPENNYKTTPPVLDSDGSFFLYSKLTVDKSRWQQGNVFSCSVMHEALHNHYTQKSLSLSP light: not shown | 7.18 pM | 1.99 nM | binds | binds
DG_3CH987-SG182/3CL012-SK1 (antibody, V domains shown) VH: QVQLVQSGPDVEKPGASVKVSCKASGYTFTSYYIHWVRQAPGQGLEWMGVINPRGGSRRSAQKFQGRITMTRDTSTSTVYMELSSLRSEDTAVYYCARGGRALFYDSYTTPFDGGSWWFDPWGQGSLVTVSS VL: DIQLTQSPSSLSASVGDRVTFTCQASQDIRKYLNWYQQKPGKAPKLLIYDASNLKTGVPSRFSGSGSGTDFTFTISSLQPEDVATYYCQQFEDLPITFGQGTRLQIKR | 2.67 pM | 1.42 nM | binds | binds
DG_3CH987-SG182/3CL-SK1 (antibody, V domains shown) VH: QVQLVQSGPDVEKPGASVKVSCKASGYTFTSYYIHWVRQAPGQGLEWMGVINPRGGSRRSAQKFQGRITMTRDTSTSTVYMELSSLRSEDTAVYYCARGGRALFYDSYTTPFDGGSWWFDPWGQGSLVTVSS VL: DIQLTQSPSSLSASVGDRVTFTCQASQDIRKYLNWYQQKPGKAPKLLIYDASNLKTGVPSRFSGSGSGTDFTFTISSLQPEDVATYYCQQFDDLPITFGQGTRLQIKR | 0.986 pM | 1.82 nM | binds | binds
DG_3CH953-SG1106/3CL-SK1 (antibody) heavy: QVQLVQSGPDVEKPGASVKVSCKASGYTFTSNYIHWVRQAPGQGLEWMGVINPRGGSRRSAQKFQGRITMTRDTSTSTVYMELSSLRSEDTAVYYCARGGRALFYDSYTTPFDGGSWWFDPWGQGSLVTVSSASTKGPSVFPLAPSSKSTSGGTAALGCLVKDYFPEPVTVSWNSGALTSGVHTFPAVLQSSGLYSLSSVVTVPSSSLGTQTYICNVNHKPSNTKVDKRVEPKSCDKTHTCPPCPAPEAAGGPSVFLFPPKPKDTLMISRTPEVTCVVVDVSHEDPEVKFNWYVDGVEVHNAKTKPREEQYNSTYRVVSVLTVLHQDWLNGKEYKCKVSNAALPAPISKTISKAKGQPREPQVYTLPPSREEMTKNQVSLTCLVKGFYPSDIAVEWESNGQPENNYKTTPPVLDSDGSFFLYSKLTVDKSRWQQGNVFSCSVLHEALHAHYTRKELSLSP light: not shown | 7.08 pM | 1.85 nM |  | 
DG_3CH989-SG182/3CL012-SK1 (antibody, V domains shown) VH: QVQLVQSGAEVKKPGASVKVSCKASGYTFTSNYIHWVRQAPGQGLEWMGVINPRGGSRRSAQKFQGRVTMTRDTSTSTVYMELSSLRSEDTAVYYCARGGRALFYDSYTTPFDGGSWWFDPWGQGSLVTVSS VL: DIQLTQSPSSLSASVGDRVTFTCQASQDIRKYLNWYQQKPGKAPKLLIYDASNLKTGVPSRFSGSGSGTDFTFTISSLQPEDVATYYCQQFEDLPITFGQGTRLQIKR | 0.0967 pM | 1.52 nM | binds | binds
DG_3CH987-SG182/3CL119-SK1 (antibody, V domains shown) VH: QVQLVQSGPDVEKPGASVKVSCKASGYTFTSYYIHWVRQAPGQGLEWMGVINPRGGSRRSAQKFQGRITMTRDTSTSTVYMELSSLRSEDTAVYYCARGGRALFYDSYTTPFDGGSWWFDPWGQGSLVTVSS VL: DIQLTQSPSSLSASVGDRVTFTCQASQEIRKYLNWYQQKPGKAPKLLIYDASNLKTGVPSRFSGSGSGTDFTFTISSLQPEDVATYYCQQFDDLPITFGQGTRLQIKR | 0.715 pM | 1.53 nM | binds | binds
DG_3CH1047-SG1095/3CL-SK1 (antibody, human IgG1, kappa, L234A L235A) heavy: QVQLVQSGPDVEKPGASVKVSCKASGYTFTSYYMHWVRQAPGQGLEWMGVINPRGGSRRSAQKFQGRITMTRDTSTSTVYMELSSLRSEDTAVYYCARGGEALFYDSYTTPFDGGSWWFDPWGQGSLVTVSSASTKGPSVFPLAPSSKSTSGGTAALGCLVKDYFPEPVTVSWNSGALTSGVHTFPAVLQSSGLYSLSSVVTVPSSSLGTQTYICNVNHKPSNTKVDKRVEPKSCDKTHTCPPCPAPEAAGGPSVFLFPPKPKDTLMISRTPEVTCVVVDVSHEDPEVKFNWYVDGVEVHNAKTKPREEQYNSTYRVVSVLTVLHQDWLNGKEYKCKVSNAALPAPISKTISKAKGQPREPQVYTLPPSREEMTKNQVSLTCLVKGFYPSDIAVEWESNGQPENNYKTTPPVLDSDGSFFLYSKLTVDKSRWQQGNVFSCSVMHEALHNHYTQKSLSLSP light: not shown | 2.93 pM | 2.09 nM |  | 
DG_3CH989-SG182/3CL119-SK1 (antibody, V domains shown) VH: QVQLVQSGAEVKKPGASVKVSCKASGYTFTSNYIHWVRQAPGQGLEWMGVINPRGGSRRSAQKFQGRVTMTRDTSTSTVYMELSSLRSEDTAVYYCARGGRALFYDSYTTPFDGGSWWFDPWGQGSLVTVSS VL: DIQLTQSPSSLSASVGDRVTFTCQASQEIRKYLNWYQQKPGKAPKLLIYDASNLKTGVPSRFSGSGSGTDFTFTISSLQPEDVATYYCQQFDDLPITFGQGTRLQIKR | 6.83 pM | 1.53 nM | binds | binds
DG_3CH953-SG1095/3CL012-SK1 (antibody, human IgG1, kappa, L234A L235A) heavy: QVQLVQSGPDVEKPGASVKVSCKASGYTFTSNYIHWVRQAPGQGLEWMGVINPRGGSRRSAQKFQGRITMTRDTSTSTVYMELSSLRSEDTAVYYCARGGRALFYDSYTTPFDGGSWWFDPWGQGSLVTVSSASTKGPSVFPLAPSSKSTSGGTAALGCLVKDYFPEPVTVSWNSGALTSGVHTFPAVLQSSGLYSLSSVVTVPSSSLGTQTYICNVNHKPSNTKVDKRVEPKSCDKTHTCPPCPAPEAAGGPSVFLFPPKPKDTLMISRTPEVTCVVVDVSHEDPEVKFNWYVDGVEVHNAKTKPREEQYNSTYRVVSVLTVLHQDWLNGKEYKCKVSNAALPAPISKTISKAKGQPREPQVYTLPPSREEMTKNQVSLTCLVKGFYPSDIAVEWESNGQPENNYKTTPPVLDSDGSFFLYSKLTVDKSRWQQGNVFSCSVMHEALHNHYTQKSLSLSP light: not shown | 5.53 pM | 1.86 nM | binds | binds
DG_3CH953-SG1095/3CL-SK1 (antibody, human IgG1, kappa, L234A L235A) heavy: QVQLVQSGPDVEKPGASVKVSCKASGYTFTSNYIHWVRQAPGQGLEWMGVINPRGGSRRSAQKFQGRITMTRDTSTSTVYMELSSLRSEDTAVYYCARGGRALFYDSYTTPFDGGSWWFDPWGQGSLVTVSSASTKGPSVFPLAPSSKSTSGGTAALGCLVKDYFPEPVTVSWNSGALTSGVHTFPAVLQSSGLYSLSSVVTVPSSSLGTQTYICNVNHKPSNTKVDKRVEPKSCDKTHTCPPCPAPEAAGGPSVFLFPPKPKDTLMISRTPEVTCVVVDVSHEDPEVKFNWYVDGVEVHNAKTKPREEQYNSTYRVVSVLTVLHQDWLNGKEYKCKVSNAALPAPISKTISKAKGQPREPQVYTLPPSREEMTKNQVSLTCLVKGFYPSDIAVEWESNGQPENNYKTTPPVLDSDGSFFLYSKLTVDKSRWQQGNVFSCSVMHEALHNHYTQKSLSLSP light: not shown | 7.03 pM | 1.79 nM |  | 
DG_3CH953-SG182/3CL666-SK1 (antibody, V domains shown) VH: QVQLVQSGPDVEKPGASVKVSCKASGYTFTSNYIHWVRQAPGQGLEWMGVINPRGGSRRSAQKFQGRITMTRDTSTSTVYMELSSLRSEDTAVYYCARGGRALFYDSYTTPFDGGSWWFDPWGQGSLVTVSS VL: DIQLTQSPSSLSASVGDRVTITCQASQEIRKYLNWYQQKPGKAPKLLIYDASNLKTGVPSRFSGSGSGTDFTLTISSLQPEDVATYYCQQFDDLPITFGQGTRLQIKR | 5.48 pM | 1.69 nM | binds | binds
DG_3CH953-SG182/3CL668-SK1 (antibody, V domains shown) VH: QVQLVQSGPDVEKPGASVKVSCKASGYTFTSNYIHWVRQAPGQGLEWMGVINPRGGSRRSAQKFQGRITMTRDTSTSTVYMELSSLRSEDTAVYYCARGGRALFYDSYTTPFDGGSWWFDPWGQGSLVTVSS VL: DIQLTQSPSSLSASVGDRVTITCQASQDIRKYLNWYQQKPGKAPKLLIYDASNLKTGVPSRFSGSGSGTDFTLTISSLQPEDVATYYCQQFEDLPITFGQGTRLQIKR | 2.36 pM | 1.68 nM | binds | binds
